Test results taken from patent US20180037663A1 (OHIO STATE INNOVATION FOUNDATION, published 2018).

Biological target: T1, bovine submaxillary mucin (bovine)
T1 construct: Used as surrogate antigen for TAG-72; also called BSM
Experiment: binding study of FIG. 14 (inhibition dot blot), compared with 3E8.IgG

B1: 3E8.scFv (scFv)
scFv: GSSGDIVMTQSPDSLAVSLGERATINCKSSQSVLYSSNNKNYLAWYQQKPGQPPKLLIYWASTRESGVPDRFSGSGSGTDFTLTISSLQAEDVAVYYCQQYYSYPLTFGGGTKVEIKLSADDAKKDAAKKDDAKKDDAKKDLQVQLVQSGAEVKKPGASVKVSCKASGYTFTDHAIHWVRQAPGQRLEWMGYFSPGNDDFKYSQKFQGRVTITADKSASTAYMELSSLRSEDTAVYYCARSWIMQYWGQGTLVTVSS
notes: Monomeric scFv purified from the E. coli periplasm; Labelled at lysines with fluorescein (dot blots) or biotin (HRP dot blot, IHC); also called scFv of 3E8; single chain variable fragment of 3E8
For B1, the “fold worse binder than 3E8.IgG” value was roughly 16 fold.
